The values that follow come from patent publication EP1230261B1 (LUDWIG INSTITUTE FOR CANCER RESEARCH, dated 2008).

The first experiment deals with T1, HLA-A*0201 molecules on T2 cells (CEMX721.174.T2) (human).
T1 construct: whole, on cells; also called HLA-A2; HLA-A2 molecules
The experiment in a line: functional competition assay.
For the molecule SALMWITQA [peptide SALMWITQA (SEQ ID NO:21)], the “fold reduction in peptide binding (against the base peptide SEQ ID NO:6)” value came out at 100 fold.

A further experiment has as its target T1, HLA-A*0201 molecules on T2 cells …. Nature of the experiment: cell-based or functional assay.
As to SLLMWITQCFL [NY-ESO-1 157-167 peptide SLLMWITQCFL (SEQ ID NO:1)], the “Relative competitor activity (inhibition of CTL lysis of T2 cells given SEQ ID NO:4)” value is 0.04 relative to FluMA 58-66 (SEQ ID NO:5).
Regarding QLSLLMWIT [NY-ESO-1 155-163 peptide QLSLLMWIT (SEQ ID NO:3)], the “Relative competitor activity (inhibition of CTL lysis of T2 cells given SEQ ID NO:4)” value was 0.01 relative to FluMA 58-66 (SEQ ID NO:5).
Same read-out and setting: in the case of SLLMWITQL [NY-ESO-1 157-C165L peptide SLLMWITQL (SEQ ID NO:7)] it was 0.5 relative to FluMA 58-66 (SEQ ID NO:5).

The target is the same in a further experiment. Nature of the experiment: cell-based or functional assay. This is another data set of the same source.
For the molecule SLLMWITAA [peptide SLLMWITAA (SEQ ID NO:27)], the “Competitor activity [mM] 50%” value came to 0.00018 mM and the “Relative competitor activity to SEQ ID NO:2” value was 1500 relative to SEQ ID NO:2.
In the same order, the values of SLLMWITQCFL [NY-ESO-1 157-167 peptide SLLMWITQCFL (SEQ ID NO:1)] are 0.02 mM and 13 relative to SEQ ID NO:2.
In the same order, the values of QLSLLMWIT [NY-ESO-1 155-163 peptide QLSLLMWIT (SEQ ID NO:3)] are 0.03 mM and 9 relative to SEQ ID NO:2.
Take SLAMWITQA [peptide SLAMWITQA (SEQ ID NO:22)]: the “Competitor activity [mM] 50%” value stood at 0.001 mM and the “Relative competitor activity to SEQ ID NO:2” value was 270 relative to SEQ ID NO:2.
Take SLLMWITQL [NY-ESO-1 157-C165L peptide SLLMWITQL (SEQ ID NO:7)]: the “Competitor activity [mM] 50%” value worked out at 0.002 mM and the “Relative competitor activity to SEQ ID NO:2” value is 130 relative to SEQ ID NO:2.
For SLLMWITQV [NY-ESO-1 157-C165V peptide SLLMWITQV (SEQ ID NO:8)], the “Competitor activity [mM] 50%” value stood at 6e-05 mM.
In the case of SALMWITQA [peptide SALMWITQA (SEQ ID NO:21)], the “Competitor activity [mM] 50%” value amounted to 0.01 mM and the “Relative competitor activity to SEQ ID NO:2” value is 27 relative to SEQ ID NO:2.
In the same order, the values of SLLMWATQA [peptide SLLMWATQA (SEQ ID NO:25)] are 0.01 mM and 27 relative to SEQ ID NO:2.
In the same order, the values of SLLMWITQS [peptide SLLMWITQS (SEQ ID NO:19)] are 0.02 mM and 13 relative to SEQ ID NO:2.
For SLLMAITQA [peptide SLLMAITQA (SEQ ID NO:24)], in that order: 0.004 mM and 68 relative to SEQ ID NO:2.
Take SLLAWITQA [peptide SLLAWITQA (SEQ ID NO:23)]: the “Competitor activity [mM] 50%” value was < 0.0001 mM and the “Relative competitor activity to SEQ ID NO:2” value is > 2700 relative to SEQ ID NO:2.
For ALLMWITQA [peptide ALLMWITQA (SEQ ID NO:20)], in that order: 0.0013 mM and 208 relative to SEQ ID NO:2.
In the same order, the values of SLLMWIAQA [peptide SLLMWIAQA (SEQ ID NO:26)] are 0.0002 mM and 1350 relative to SEQ ID NO:2.
